# Assay results taken from patent US12042530B2, “Target peptides for immunotherapy and diagnostics” (University of Virginia Patent Foundation, priority 2012, dated 2024).
# Non-standard residues stand in square brackets, D forms with d. Residues, ends and D or L forms follow the SMILES beside them. No end group written: not given here. pT = C[C@@H](OP(=O)(O)O)[C@H](N)C(=O)O; pS = N[C@@H](COP(=O)(O)O)C(=O)O
# What was measured:
# PBMCs = assay: Memory T cell response, IFNγ ELISpot, healthy A2 positive donors; type: cell-based, human; conditions: for Day 7 ELISpot, donor alpha: healthy A2 positive donor alpha; for Day 7 ELISpot, donor beta: healthy A2 positive donor beta; for Memory T cell response, in words: healthy donors / patient; for Day 7 ELISpot, donor one: healthy A2 positive donor one
# HLA A*0201 [1] = molecular target: T1, HLA A*0201 (Homo sapiens, UniProt P04439, D140Y/D185E/D98H/E176V/E277Q/G131W/G231S/I119V/I121R/I166T/I218V/L300P/L318F/N151K/N90K/P208A/P217A/Q86G/Q94H/R138H/R169H/T345S); assay: Binding to HLA A*0201 (statement)
# HLA A*0301 = HLA A*0301 (Homo sapiens, UniProt P04439); assay: Binding to HLA A*0301 (statement)
# HLA A*0201 [2] = molecular target: T1, HLA A*0201; assay: HLA-A*0201 peptide-binding competition assay; conditions: for IC50: FIG. 2F, three independent experiments, triplicate wells, read-out: IC50, competition with a standard peptide for HLA-A2 binding (converted)
# Experimental: Affinity purified HLA-A*0201 was incubated with iodinated peptide […] (SEQ ID NO: 2379), graded doses of test peptides, and β2M as previously described (Zarling et al., 2000). Peptide-MHC complexes were captured in W6/32-coated ELISA plates after 48 hours and the dose at which test peptides inhibited binding of the indicator peptide by 50% (IC50) was calculated.
# CD8+ T cells = assay: ELISpot T cell recognition assay, healthy donors, leukemia-associated phosphopeptides; type: cell-based, human; conditions: 10 HLA-A2+ and 10 HLA-B7+ healthy individuals, 7 day cultures
# Experimental: Immunity against 76 HLA-B7 and 10 HLA-A2 leukemia-associated phosphopeptide antigens was assessed in 10 HLA-A2^+ and 10 HLA-B7^+ healthy individuals (see FIG. 12A).
# For ELISpot analysis, PBMCs and CD8^+ T cells were isolated fresh from healthy donors and patients. 1×10^6 PBMCs were isolated from both AML patients and healthy donors and resuspended in AIM-V media (10% human AB serum) in a 96 well plate. Peptide or phosphopeptides were added individually at 10 μg/ml and placed at 37° C. in CO2 incubator for 7 days. Cells were then harvested, washed 4 times, and re-challenged with phosphopeptides, peptides, or anti-CD3 (OKT3, 100 ng/ml, Mabtech, Inc., Mariemont, Ohio, United States of America) as per the manufacturer's instructions. Individual cytokine-producing cells were identified as dark spots after a 15 minute reaction with 5-bromo-4-chloro-3-indolyl phosphate and NBT by means of an alkaline phosphatase conjugate substrate (Mabtech).
# melanoma cells = assay: T cell recognition of GSK-3β- and proteasome-inhibited melanoma cells; type: cell-based, human
# Experimental: Surface peptide-MHC complexes were denatured from the cells using a mild acid buffer as previously described (Robila et al., 2008) and then allowed to re-express peptide-MHC molecules in the presence of BIO, MeBIO, or 5 μM lactacystin for 12 hours. T cell recognition of the cells was evaluated after 5 hours incubation with pS33-βcat-specific T cells.
# phosphoS33-β-catenin = assay: Western blot of phosphoS33-β-catenin and β-catenin; type: cell-based, human; conditions: BIO in the presence of lactacystin
# Experimental: Lysates were prepared from ˜80% confluent cells in buffer containing 2% Triton X 100 and protease and phosphatase inhibitors. Samples were separated on 8% SDS-PAGE (Thermo Fischer Scientific Inc., Waltham, Massachusetts, United States of America) and transferred to PVDF membranes (Millipore Immobilon-FL, 0.45 μm; Millipore Corporation, Billerica, Massachusetts, United States of America). Blots were probed with phosphoS33-β-catenin, β-catenin, and GAPDH antibodies overnight at 4° C. and developed by enhanced chemiluminescence (Millipore). Films were scanned and integrated density values determined using AlphaEase software and normalized to values obtained for GAPDH. In some cases, GSK-3 activity was inhibited using 5 μg BIO ((2′Z, 3′E)-6-Bromoindirubin-3′-oxime) and proteasomal degradation was blocked with 10 μg lactacystin (Calbiochem) before cells were lysed.
# [3] = molecular target: T2, HLA-A*0201 (HLA-A2) peptide complexes (Homo sapiens, UniProt P04439, D140Y/D185E/D98H/E176V/E277Q/G131W/G231S/I119V/I121R/I166T/I218V/L300P/L318F/N151K/N90K/P208A/P217A/Q86G/Q94H/R138H/R169H/T345S); assay: HLA-A*0201 phosphopeptides associated with leukemia samples (isolation of HLA-associated peptides); conditions: for Copies/cell class, JY: EBV transformed B lymphoblastoid cell line JY; for Copies/cell class, AML1: acute myeloid leukemia sample AML1; for Copies/cell class, CLL1: chronic lymphocytic leukemia sample CLL1; for Copies/cell class, B Cell: healthy B cells; for Copies/cell class, T Cell: healthy T cells; for Copies/cell class, MCL: mantle cell lymphoma sample
# T2 construct: endogenous in cells; host or cells: JY B-lymphoblastoid line; primary CLL, MCL, AML, ALL samples; healthy splenic T and B cells
# From the text: To identify naturally processed tumor-associated phosphopeptides, HLA-A*0201 (HLA-A2) and HLA-B*0702 (HLA-B7) peptide complexes from four (4) chronic lymphocytic leukemia (CLL) tumor samples, a mantle cell lymphoma sample (MCL), one acute lymphoblastic leukemia (ALL), and an acute myeloid leukemia (AML) sample, in addition to healthy splenic T and B-cells and the cultured lymphoblastoid cell line JY were isolated. These efforts yielded 10 HLA-A2-restricted and 86 HLA-B7-restricted phosphopeptide antigens (see Tables 6 and 7).
# All cell lines were grown at 37° C. with 5% CO2 in growth medium consisting of RPMI 1640 supplemented with 10% FCS and two mM L-glutamine. Blood or leukapheresis samples were taken from patients with high-burden leukemia in heparin. Tumor cells were recovered by layering the blood over density gradient (Ficoll) and collecting the tumor layer following centrifugation. The tumor was washed in tris-buffered saline (TBS). The purity of the tumor was assessed using flow cytometry and was >98% pure in all cases. For healthy T and B-cell populations, a normal spleen sample processed and tonsil sample was collected and lymphocytes released through mechanical disruption. Mononuclear cells were isolated using a density gradient and 10^9 T cells isolated using anti-CD19 or anti-CD3 microbeads (Miltenyi Biotec Inc., Auburn, California, United States of America) with purity >98% were obtained. Bone marrow sample was obtained from an elective orthopedic procedure and red cell-depleted using hypotonic lysis. This sample was not processed further.
# Class I MHC molecules were immunoaffinity purified from the JY cell line or from primary tumor samples, and their associated peptides were extracted as previously described in Zarling et al., 2006. Approximately 1.2-14×10^9 cells were lysed in a solution containing 20 mM Tris-HCl (pH 8.0), 150 mM NaCl, 1% CHAPS, one mM PMSF, five μg/mL aprotinin, 10 μg/mL leupeptin, 10 μg/mL pepstatin A, 1 μg/ml calyculin A, and phosphatase inhibitor (cocktails I and II; Sigma-Aldrich). The mixture was subjected to centrifugation and the resulting supernatant was passed over protein A sepharose pre-loaded with the HLA-A2-specific antibody BB7.2 or HLA-B7-specific antibody MEL Peptides were eluted from the purified class I MHC molecules with 10% acetic acid.
molecule,measurement,setting,value
APRRYsSSL (APRRY[pS]SSL; listed as Homo sapiens) [SEQ ID NO: 267],"Day 7 ELISpot, donor alpha",PBMCs,++ (25-99 spots)
same,"Day 7 ELISpot, donor beta",PBMCs,+ (3-24 spots)
same,"Memory T cell response, in words",PBMCs,Two healthy donors (HD) responded
same,Binding to HLA A*0201,HLA A*0201 [1],does not bind to A*0201
RVAsPTSGVKR (RVA[pS]PTSGVKR; listed as Homo sapiens) [SEQ ID NO: 66],Binding to HLA A*0201,HLA A*0201 [1],Neither of the A*0301 peptides bind to A*0201
same,Binding to / presentation by HLA A*0301,HLA A*0301,bind to HLA A*0301
"CC[C@H](C)[C@H](NC(=O)CNC(=O)[C@H](COP(=O)(O)O)NC(=O)[C@H](CC(=O)O)NC(=O)[C@H](CC(C)C)NC(=O)[C@@H](N)Cc1ccc(O)cc1)C(=O)N[C@@H](Cc1c[nH]cn1)C(=O)N[C@@H](CO)C(=O)NCC(=O)N[C@@H](C)C(=O)O [SEQ ID NO: 427, YLD(pS)GIHSGA] (H-YLD[pS]GIHSGA-OH)",IC50,HLA A*0201 [2],298 nM
VMIGsPKKL,"HLA-A*0201 (MHC) binding affinity, in words",HLA A*0201 [2],weak MHC binding affinity
same,"Memory T cell response, in words",PBMCs,strong phosphopeptide-specific memory T cell response
CC[C@H](C)[C@H](NC(=O)CNC(=O)[C@H](COP(=O)(O)O)NC(=O)[C@H](CC(=O)O)NC(=O)[C@H](CC(C)C)NC(=O)[C@@H](N)Cc1ccc(O)cc1)C(=O)N[C@@H](Cc1c[nH]cn1)C(=O)N[C@@H](COP(=O)(O)O)C(=O)NCC(=O)N[C@@H](C)C(=O)O [pS33/S37-βcat30] (H-YLD[pS]GIH[pS]GA-OH),IC50,HLA A*0201 [2],575 nM
RVAsPTSGVK (RVA[pS]PTSGVK; listed as Homo sapiens) [SEQ ID NO: 65],Binding to HLA A*0201,HLA A*0201 [1],Neither of the A*0301 peptides bind to A*0201
same,Binding to / presentation by HLA A*0301,HLA A*0301,bind to HLA A*0301
IMDRtPEKL (IMDR[pT]PEKL; listed as Homo sapiens) [SEQ ID NO: 398],"Day 7 ELISpot, donor alpha",PBMCs,+++ (>100 spots)
same,"Day 7 ELISpot, donor one",PBMCs,+ (3-24 spots)
KLIDRTE(pS)L (KLIDRTE[pS]L; listed as Homo sapiens) [SEQ ID NO: 440],"Immune response in healthy donors, in words",CD8+ T cells,not immunogenic
"O=C1Nc2cc(Br)ccc2/C1=C1/Nc2ccccc2/C1=N\O [BIO, (2′Z, 3′E)-6-Bromoindirubin-3′-oxime]",pS33-βcat-specific T cell recognition of melanoma cells,"melanoma cells; DM331 and SLM2, re-expression of peptide-MHC in presence of inhibitor (5 μM)",completely abrogated recognition of melanoma cells
same,T cell recognition of Tyr369,melanoma cells; control epitope,unaffected
same,Amount of phosphoS33-β-catenin in melanoma cells,phosphoS33-β-catenin,significantly diminished
RQA(pS)IELPSM (RQA[pS]IELPSM; listed as Homo sapiens) [SEQ ID NO: 451],"Immune response in healthy donors, in words",CD8+ T cells,not immunogenic
"TPRVTGGGAM (Artificially synthesized cytomegalovirus peptide) [TPR (CMV), cytomegalovirus (CMV) peptide, reference compound]","Day 7 ELISpot, donor alpha",PBMCs,+++ (>100 spots)
same,"Day 7 ELISpot, donor one",PBMCs,+ (3-24 spots)
457 (RTFSPTYGL; SITE (1)..(9): One or more of the listed amino acids can be phosphorylated as set forth in the Tables; listed as Homo sapiens) [compound 457],"Copies/cell class, CLL2",[3],0
same,"Copies/cell class, CLL3",[3],1 (1 indicates <1 copy/cell)
same,"Copies/cell class, CLL4",[3],0
same,"Copies/cell class, JY",[3],0
same,"Copies/cell class, AML1",[3],0
same,"Copies/cell class, CLL1",[3],0
same,"Copies/cell class, B Cell",[3],0
same,"Copies/cell class, T Cell",[3],0
same,"Copies/cell class, MCL",[3],0
460 (SMTRSPPRV; SITE (1)..(9): One or more of the listed amino acids can be phosphorylated as set forth in the Tables; listed as Homo sapiens) [compound 460],"Copies/cell class, CLL2",[3],0
same,"Copies/cell class, CLL3",[3],1 (1 indicates <1 copy/cell)
same,"Copies/cell class, CLL4",[3],0
same,"Copies/cell class, JY",[3],0
same,"Copies/cell class, AML1",[3],0
same,"Copies/cell class, CLL1",[3],0
same,"Copies/cell class, B Cell",[3],0
same,"Copies/cell class, T Cell",[3],0
same,"Copies/cell class, MCL",[3],0
"CC[C@H](C)[C@H](NC(=O)CNC(=O)[C@H](COP(=O)(O)O)NC(=O)[C@H](CC(=O)O)NC(=O)[C@H](CC(C)C)NC(=O)[C@@H](N)Cc1ccc(O)cc1)C(=O)N[C@@H](Cc1c[nH]cn1)C(=O)N[C@@H](CO)C(=O)NCC(=O)N[C@H](C(=O)O)C(C)C [SEQ ID NO: 2080, YLDsGIHSGV] (H-YLD[pS]GIHSGV-OH)",IC50,HLA A*0201 [2],36.4 nM
RTFpSPTYGL (RTF[pS]PTYGL; listed as Homo sapiens) [SEQ ID NO: 457],"Day 7 ELISpot, donor one",PBMCs,+ (3-24 spots)
same,"Day 7 ELISpot, donor three",PBMCs; healthy A2 positive donor three,+ (3-24 spots)
VMIGpSPKKV (VMIG[pS]PKKV; listed as Homo sapiens) [SEQ ID NO: 426],"Day 7 ELISpot, donor alpha",PBMCs,++ (25-99 spots)
same,"Day 7 ELISpot, donor beta",PBMCs,+ (3-24 spots)
same,"Day 7 ELISpot, donor one",PBMCs,++ (25-99 spots)
same,"Day 7 ELISpot, donor two",PBMCs; healthy A2 positive donor two,++ (25-99 spots)
